Data reported in the Immune Epitope Database (IEDB).

Columns and labels:
HLA-A*03:01 [1] = test: IEDB peptide-MHC binding, cellular MHC/competitive/fluorescence; ≥ and ≤ were set here for values at or beyond the usual limits of such assays
HLA-A*11:01 = test: as above
HLA-A*31:01 [2] = test: as above
HLA-A*33:01 [3] = test: IEDB peptide-MHC binding, purified MHC/competitive/radioactivity; ≥ and ≤ were set here for values at or beyond the usual limits of such assays; details: source organism: Mammarenavirus choriomeningitidis
HLA-A*68:01 [4] = test: as above
HLA-A*33:01 [5] = test: IEDB peptide-MHC binding, cellular MHC/competitive/fluorescence; ≥ and ≤ were set here for values at or beyond the usual limits of such assays
HLA-A*68:01 [6] = test: as above
HLA-A*03:01 [7] = test: IEDB peptide-MHC binding, purified MHC/competitive/radioactivity; ≥ and ≤ were set here for values at or beyond the usual limits of such assays
HLA-A*01:01 = test: IEDB peptide-MHC binding, cellular MHC/competitive/fluorescence; ≥ and ≤ were set here for values at or beyond the usual limits of such assays; details: source organism: Vaccinia virus WR
HLA-A*02:02 [8] = test: as above; details: source organism: Vaccinia virus WR
HLA-A*02:03 [9] = test: as above; details: source organism: Vaccinia virus WR
HLA-A*23:01 [10] = test: as above; details: source organism: Vaccinia virus WR
HLA-A*26:01 [11] = test: as above; details: source organism: Vaccinia virus WR
HLA-A*29:02 = test: as above; details: source organism: Vaccinia virus WR
HLA-A*30:02 [12] = test: as above; details: source organism: Vaccinia virus WR
HLA-A*68:02 = test: as above
HLA-A*02:01 [13] = test: IEDB peptide-MHC binding, purified MHC/competitive/radioactivity; ≥ and ≤ were set here for values at or beyond the usual limits of such assays; details: source organism: Vaccinia virus WR
HLA-A*02:06 = test: as above
HLA-A*24:02 [14] = test: as above; details: source organism: Vaccinia virus WR
HLA-A*02:01 [15] = test: IEDB peptide-MHC binding, cellular MHC/competitive/fluorescence; ≥ and ≤ were set here for values at or beyond the usual limits of such assays; details: source organism: Vaccinia virus WR
HLA-A*02:03 [16] = test: IEDB peptide-MHC binding, purified MHC/competitive/radioactivity; ≥ and ≤ were set here for values at or beyond the usual limits of such assays
HLA-A*23:01 [17] = test: as above; details: source organism: Vaccinia virus WR
HLA-A*02:02 [18] = test: as above
HLA-A*31:01 [19] = test: as above
HLA-A*24:02 [20] = test: IEDB peptide-MHC binding, cellular MHC/competitive/fluorescence; ≥ and ≤ were set here for values at or beyond the usual limits of such assays; details: source organism: Vaccinia virus WR
HLA-A*26:01 [21] = test: IEDB peptide-MHC binding, purified MHC/competitive/radioactivity; ≥ and ≤ were set here for values at or beyond the usual limits of such assays; details: source organism: Vaccinia virus WR
HLA-A*30:02 [22] = test: as above; details: source organism: Vaccinia virus WR
HLA-B*27:05 = test: as above; details: source organism: Mammarenavirus choriomeningitidis
[23] = source organism: Mammarenavirus choriomeningitidis
[24] = source organism: Vaccinia virus WR
[25] = source organism: Mammarenavirus lassaense
[26] = source organism: Mammarenavirus juninense
[27] = source organism: Hepatitis B virus

TSAYLISIFL
IC50 (HLA-A*03:01 [1]; [23]): 9.21 µM
IC50 (HLA-A*11:01; [23]): ≥ 70 µM
IC50 (HLA-A*31:01 [2]; [23]): 3.1 µM
IC50 (HLA-A*33:01 [3]): 2.18 µM
IC50 (HLA-A*68:01 [4]; [23]): 1.15 µM

TLMSIVSSLH
IC50 (HLA-A*11:01; [23]): 9.54 µM
IC50 (HLA-A*31:01 [2]; [23]): 11.4 µM
IC50 (HLA-A*33:01 [5]; [23]): ≥ 70 µM
IC50 (HLA-A*68:01 [6]; [23]): 6.62 µM
IC50 (HLA-A*03:01 [7]; [23]): 3.95 µM

LQQNNSFII
IC50 (HLA-A*01:01): 40.2 µM
IC50 (HLA-A*02:02 [8]): 11.7 µM
IC50 (HLA-A*02:03 [9]): 5.17 µM
IC50 (HLA-A*23:01 [10]): 8.91 µM
IC50 (HLA-A*26:01 [11]): 11.5 µM
IC50 (HLA-A*29:02): 18.6 µM
IC50 (HLA-A*30:02 [12]): 40.8 µM
IC50 (HLA-A*68:02; [24]): 69.8 µM
IC50 (HLA-A*02:01 [13]): 1.59 µM
IC50 (HLA-A*02:06; [24]): 0.423 µM
IC50 (HLA-A*24:02 [14]): 2.36 µM

TSFYLISIFL
IC50 (HLA-A*11:01; [25]): 8.09 µM
IC50 (HLA-A*31:01 [2]; [25]): ≥ 70 µM
IC50 (HLA-A*33:01 [5]; [25]): 31.1 µM
IC50 (HLA-A*68:01 [4]; [25]): 1.91 µM

VQYRILPMII
IC50 (HLA-A*01:01): 34.6 µM
IC50 (HLA-A*02:01 [15]): 9.33 µM
IC50 (HLA-A*02:02 [8]): 10.1 µM
IC50 (HLA-A*26:01 [11]): ≥ 70 µM
IC50 (HLA-A*29:02): ≥ 70 µM
IC50 (HLA-A*30:02 [12]): 7.85 µM
IC50 (HLA-A*68:02; [24]): 21.4 µM
IC50 (HLA-A*02:03 [16]; [24]): 0.606 µM
IC50 (HLA-A*02:06; [24]): 0.395 µM
IC50 (HLA-A*23:01 [17]): 0.567 µM
IC50 (HLA-A*24:02 [14]): 1.61 µM

ACQEAVKLK
IC50 (HLA-A*03:01 [1]; [26]): 16.7 µM
IC50 (HLA-A*11:01; [26]): 6.7 µM
IC50 (HLA-A*31:01 [2]; [26]): ≥ 70 µM
IC50 (HLA-A*33:01 [5]; [26]): ≥ 70 µM
IC50 (HLA-A*68:01 [6]; [26]): ≥ 70 µM

FIIFLFILL
IC50 (HLA-A*11:01; [27]): 8.98 µM
IC50 (HLA-A*68:02; [27]): 10.1 µM
IC50 (HLA-A*02:02 [18]; [27]): 0.627 µM
IC50 (HLA-A*02:03 [16]; [27]): 1.05 µM
IC50 (HLA-A*02:06; [27]): 0.9 µM
IC50 (HLA-A*03:01 [7]; [27]): 0.953 µM
IC50 (HLA-A*31:01 [19]; [27]): 0.45 µM
IC50 (HLA-A*68:01 [4]; [27]): 3.2 µM

NQGNILMDSI
IC50 (HLA-A*01:01): 24 µM
IC50 (HLA-A*02:01 [15]): 9.85 µM
IC50 (HLA-A*23:01 [10]): ≥ 70 µM
IC50 (HLA-A*24:02 [20]): 67.2 µM
IC50 (HLA-A*29:02): 7.49 µM
IC50 (HLA-A*68:02; [24]): 27.8 µM
IC50 (HLA-A*02:02 [18]; [24]): 3.94 µM
IC50 (HLA-A*02:03 [16]; [24]): 4.04 µM
IC50 (HLA-A*02:06; [24]): 3.09 µM
IC50 (HLA-A*26:01 [21]): 2.78 µM
IC50 (HLA-A*30:02 [22]): 3.95 µM

IIVLIIITSI
IC50 (HLA-B*27:05): 1.88 µM

LLTACTIFYI
IC50 (HLA-A*11:01; [24]): 18.8 µM
IC50 (HLA-A*33:01 [5]; [24]): 7.39 µM
IC50 (HLA-A*02:01 [13]): 0.0057 µM
IC50 (HLA-A*03:01 [7]; [24]): 0.829 µM
IC50 (HLA-A*31:01 [19]; [24]): 0.627 µM
IC50 (HLA-A*68:01 [4]; [24]): 4.37 µM
